This is an account of results in the DeepSol protein solubility set.

This data set in a line: soluble on expression in E. coli; label from the status in PepcDB or PDB records.
For the sequence “MAKNHYDILRRHIRSEDLLETPEFGSGSRIVEEYWIQEPFTKAIIVENEDEFRNVYYALEPTVSSEEAEVISALYDDLKKILVLQDVSVDLEERAEVLVRAIEKLSKEYAVSFTDNFYSRMLYYLFRDFFGYGLIDPLMEDTNVEDISCDGYNIPIFIYHQKYGNVETNIVLDQEKLDRMVLRLTQRSGKHISIANPIVDATLPDGSRLQATFGTEVTPRGSSFTIRKFTIEPLTPIDLIEKGTVPSGVLAYLWLAIEHKFSAIVVGETASGKTTTLNAIMMFIPPDAKVVSIEDTREIKLYHENWIAEVTRTGMGEGEIDMYDLLRAALRQRPDYIIVGEVRGREAQTLFQAMSTGHASYSTLHAGDINQMVYRLESEPLKVPRSMLQFLDIALVQTMWVRGNTRLRRTKEVNEILGIDPVDKNLLVNQFVKWDPKEDKHIEVSMPKKLEKMADFLGVSVQEVYDEMLSRKRYLELMLKRGIRNYKEVTRYIHAYYRNPELAMTKMEEGL”, the “soluble on expression in E. coli” value is listed as “soluble”.

Consider “MAKNKWQPTKHLGIYEYMTKKGKRYGIRVRYKQGNDYPEINKSGFETIAAAKVYKNNIENLKANKKEYVFTNEKLTLNTWFASYMEMFKKKNKSKDTIANKYSIYNNHLEIPFGNYYLTDISLDIYEDFLREKIKNGYANNSVKAMHKLMKSILNAAVRYEKLEKNRLQFAEIEQLEENEVIELKVLETDEFNVFISACRAFFTKYDFTMIYLAVWGMRRGEVMGVKLKNLTFDDAKQQVRITLDSTRTLRTPEGKGTKTPAGRRILLIDGEGYRLLKYSVEKAVSIAKDHGSVLHQDDFIFRNPTSNRPWAVTRMNDLLRKLEKEYDIKVYPHLLRHNFNTQALLAGANSNDLRKFIGHKNSSMTDHYSHATDEGREKLMNTMKDRLSGI”, for which the “soluble on expression in E. coli” value is recorded as “not soluble”.

On to “MAKRFTLKDAEELYLVPHWSGGFFRVGEKGDLEVTPLGPKGPAASLLEIVEALRDEGRPLPLVLRFPQILEARVRDLNEAFLEAMAKYGYQGTYRGVYPVKVNQRRLVLETVARAGRPYHLGLEAGSKPELALILAQDLSEEALITTNGFKDDDFVRLALMGRKLGRNVVITLEKFAELFRVLRLSKELGVKPLLGIRYKLKAKGAGQWEASGGENAKFGLTTPEIVRAVEVLQEEGLLDALVMLHAHIGSQVTDIRRIKAAVREAAQTYVQLRKLGAPLRYLNLGGGLAVDYDGSKTNFYASANYTLSEYAENLVYVTKEVVEAQGEPHPILVTESGRAITAYHEVLVLQVIDVIAPPGEARPSPPPPEAHPLVKELWESLQSLSPKNFQEVYHDAFADKETLQTLYDLGLVSLRDRALAEEIFYHIARRVQTIAQNLPYVPDELEDLEKLLADKLVCNFSVFQSLPDAWAIHQLFPVVPLSRLLEPPTRRATLVDISCDSDGKMDRFIDLHDVRQTLPVHPVRPGEPYYLGVFLVGAYQDVLGSNHNLFGQVGEAHVRVEEEGFAIERFVGGETAERVIEKMGFTARELMLGVERLVRQSRLSPVEKGAFLERYARELQGYTYLED”, for which the “soluble on expression in E. coli” value was “soluble”.

In the case of “MAKRGRPCGFDREQALRRALDVFWEAGYEGVTMAALKEAMGGICAPSMYAAYGSKEALFRSAVELYLSQECQLSKGAFALPTARESIAALLESAAVSYTTEGKPRGCLVDLSTTNFSPANKGVEDYLRDHRRRAARLLRERFARGVADGDVPAGADLDALTSFYSSVLQGLSIQARDGASRQQLLAIGRCAMAAWDSLLAVEAA”, the “soluble on expression in E. coli” value is recorded as “not soluble”.

“MAKRKLTQNQTRRIQSNNAKTLHRHKKKEIEWSDEMLGESQEGVVVTRYSIHADVENEQGEIYRCNLRRTLSSLVVGDKVVWRKGNEQLQGVSGVIEAIHPRENEISRPDYYDGLKPIAANIDRIIIVSAVLPTLSLNIIDRYLVVCEIAGITPLIVLNKVDLLAQEQRQEIEDQLKIYQDIGYEILMISAKSGENMEKLTALLAQGTAIFVGQSGVGKSSLINHILPSVNAQVGDVSETSGLGQHTTTSSRLYHLPQGGNLIDSPGIREFGLWHLDAEQITKGYREFQYVLGTCKFRDCKHLSDPGCALREAVEQGKISPVRYDNYHRLIESLSETKSQRHFSLV”: the “soluble on expression in E. coli” value is “not soluble”.

For “MAKRVYLLSEARGLSRDLLGGKGHGLAEMAAAGLPVPPAFIVTTEACRQYLKAGEVPGLWGEVRAGMAALEGLTGKRFGRGEGKAPPLLVSVRSGAPVSMPGMMDTVLNLGLTLEGVEALARATGNPRFAWDSLRRLLAMYGEVVLGEGPEVFEGMLSALKAERGVGTDAALGPEDLEELAYRYLRHLEARGTPFPLDPWAQLQGAIEAVFRSWQNPRARTYRRIYGIPEDLGTAVVVQAMVFGNLGEDSGTGVGFTRNPATGEKGLYGEYLRNAQGEDVVAGVRTPEPLERLKGYAPGLYEELLQVAERLERHFRDMQDFEFTVERGRLFLLQTRAGKRTAQAAVRIAVEMAEEGLISREEAVMRVEANALPGLLRPSVDRDQAPRPLLKGLPASPGAAVGHAAFTNEAVERFHAQGLPAVLVRPETTPEDITGMYLAKGILTARGGLTSHAAVVARGLGVPAVVGAEALRVFPGEGRALAEGVEIREGDLLTLDGGTGEVYLGAVPLVEAGGEALLEKLLSWAEPHRRLGVRANADTPEDAQRARAFGAEGIGLCRTEHMFFREDRLPWVRRLILAETPEEEALALERLFHFQKEDFKEILRAMDGLPVTVRLLDPPLHEFLPPLEALARRAEEGDEEAGRLLRRAEALKEANPMLGFRGARLLLLRPGVFRMQLRALLEAARELKEAGHDPRPEVMVPLVADPKEVERARALAEELFREYGPIPFGTMVETPRAALLAAEIAPLVDFFSFGTNDLTQMAFGLSRDDAGKFLPRYVEEGLFPFDPTERLDEKGVGRLLRMAAEEGRKANPRLKLGLCGEHGGEAGSVRFVADLLDYTSASPFRVLTARLAAAQAGLSRALKPA”, the “soluble on expression in E. coli” value is “soluble”.

On to “MAKWVYKFEEGNASMRNLLGGKGCNLAEMTILGMPIPQGFTVTTEACTEYYNSGKQITQEIQDQIFEAITWLEELNGKKFGDTEDPLLVSVRSGARASMPGMMDTILNLGLNDVAVEGFAKKTGNPRFAYDSYRRFIQMYSDVVMEVPKSHFEKIIDAMKEEKGVHFDTDLTADDLKELAEKFKAVYKEAMNGEEFPQEPKDQLMGAVKAVFRSWDNPEAIVYRRMNDIPGDWGTAVNVQTMVFGNKGETSGTGVAFTRNPDTGEKGIYGRYLINAQGEDVVAGVRTPQPITQLENDMPDCYKQFMDLAMKLEKHFRDMQDMEFTIEEGKLYFLQTRNGKRTAPAALQIACDLVDEGMITEEEAVVRIEAKSLDQLLHPTFNPAALKAGEVIGSALPASPGAAAGKVYFTADEAKAAHEKGERVILVRLETSPEDIEGMHAAEGILTVRGGMTSHAAVVARGMGTCCVSGCGEIKINEEAKTFELGGHTFAEGDYISLDGSTGKIYKGDIETQEASVSGSFERIMVWADKFRTLKVRTNADTPEDTLNAVKLGAEGIGLCRTEHMFFEADRIMKIRKMILSDSVEAREEALNELIPFQKGDFKAMYKALEGRPMTVRYLDPPLHEFVPHTEEEQAELAKNMGLTLAEVKAKVDELHEFNPMMGHRGCRLAVTYPEIAKMQTRAVMEAAIEVKEETGIDIVPEIMIPLVGEKKELKFVKDVVVEVAEQVKKEKGSDMQYHIGTMIEIPRAALTADAIAEEAEFFSFGTNDLTQMTFGFSRDDAGKFLDSYYKAKIYESDPFARLDQTGVGQLVEMAVKKGRQTRPGLKCGICGEHGGDPSSVEFCHKVGLNYVSCSPFRVPIARLAAAQAALNNK”, for which the “soluble on expression in E. coli” value is “soluble”.

For the sequence “MALADISGYLDVLDSVRGFSYLENAREVLRSGEARCLGNPRSEPEYVKALYVIGASRIPVGDGCSHTLEELGVFDISVPGEMVFPSPLDFFERGKPTPLVRSRLQLPNGVRVWLKLEWYNPFSLSVKDRPAVEIISRLSRRVEKGSLVADATSSNFGVALSAVARLYGYRARVYLPGAAEEFGKLLPRLLGAQVIVDPEAPSTVHLLPRVMKDSKNEGFVHVNQFYNDANFEAHMRGTAREIFVQSRRGGLALRGVAGSLGTSGHMSAAAFYLQSVDPSIRAVLVQPAQGDSIPGIRRVETGMLWINMLDISYTLAEVTLEEAMEAVVEVARSDGLVIGPSGGAAVKALAKKAAEGDLEPGDYVVVVPDTGFKYLSLVQNALEGAGDSV”, the “soluble on expression in E. coli” value was “soluble”.

With “MALAGAEVVVKMTPKSVAHVFKKEMSSLHTSLLHLKPSPFQATYLGLEMTIDHLQVVDFKMPKLSYETSASQSHMTFKLLGGSARLLGQYSAVYKTKREGQFEMIFEHFHMSVPVKRTALTKFTVASDECTLEVDESMITMSPVLPEQISAKIKSDLLDQLKEAACSNATQFFSKLNSHLIHFAEATDISQGGHPSHIDVELHFQNPTSEDDTAIHVDVTESVVNAELSKLYSSANTRFIWNDVPEIKELLKSCKTTECRFIEDGDIVSSFFDRPSIRIQSDNTVSLRLPLSTSLTTTNGKELFRIQTEVELNLEDIVLEHPENGEVFWSAKFHIKNIRILQTSSSRNFQKFATRMESWIEEHKLFMENLLNTYIQGSLPVHLRSPLAWTHRVHARPIFSTSSLSFHVHPHFSPSLRVLV”, the “soluble on expression in E. coli” value is listed as “not soluble”.

With “MALFSPYALGATLYMPATRDDIVDVVFGEKIPELRSLVVCLEDAVALIDVDTALLNLRQVLTRIHDRGGRPANGPLLFVRPRDAAMARILNDWPLMAHVDGFVVPKLSLKSLTSWEEAVTNPALALMPTLETPEVFNPTAMVELGQALKASLHERIIALRIGGNDLMGCLGLRRNPAMTLYSTPMGYVIPMLAGVMGAQGFALTAPVFEQLATPDILEQELALDITNGLVGKTAIHPSQVNIIQNALRVSLEDMNSARMILNSVAPAVFKYNDAMCEPATHYKWATHIMERAKWHGVLPTPASIMDASIRLAEAVSLEHHHHHH”, the “soluble on expression in E. coli” value is reported as “soluble”.

For “MALHQRMFSGNKINIVRKNHPLFLGYLNEQLCAYASAQLSQKEGRLLYLGVDEKYRQQGIATALMAQVWNFLHDSCQDKITLVQSDKAQAAGKLYKKLGFKTIRRLLSAQLIVN”, the “soluble on expression in E. coli” value was “not soluble”.

Regarding “MALLAEHLLRPLPADKQIETGPFLEAVSHLPPFFDCLGSPVFTPIKADISGNITKIKAVYDTNPTKFRTLQNILEVEKEMYGAEWPKVGATLALMWLKRGLRFIQVFLQSICDGERDENHPNLIRVNATKAYEMALKKYHGWIVQKIFQAALYAAPYKSDFLKALSKGQNVTEEECLEKVRLFLVNYTATIDVIYEMYTRMNAELNYKV”, the “soluble on expression in E. coli” value is reported as “soluble”.

With “MALLGPKEQEIVRERLANLTRDVEMVLFTDSSTLIAPGKEPCLYCKETKQLLEELSALSDKLHLVVYDLATPEGREKAGAYKVEAAPTLILREKGSEAINLRYRGIPAGYEFASLLEDIEMLGRDGHGLPENVVQELNDLPEEVVLQVFVTPTCPYCPQAVRTAHRLAYASPKVWGEMIEANEFPALSDRYRIHGVPDTIINHGKERVLGAQPLSQFLQAIRKAVGVRA”, the “soluble on expression in E. coli” value was “soluble”.

For “MALREMIIDESDDIESYSDQSLCLDKAKELLALIKLPTGLLPLKDMTEVGYNKTKGFVWMRMRSKIEHTFREIGRRVLYDTEITAFVEDRRMRRLTGVKSKELMIWVPVNDIFIKRKILRRSPLLIPPACHEHLKFQHFNVRVDKLKEKRSNQTSLM”, the “soluble on expression in E. coli” value is “not soluble”.

“MALSGIYKLDDGKPYLNNCFPARNLLRVPEEGQGHWLVVQKGNLKKKPKGLVGAQAERRESLKATSFEFKGKKESRRENQVDLPGHILDQAFLLKHHCVRKPSDLCTINAKENDFKHFHSVIYINASENLLPLEAFHTFPALKELDLAFNGIKTIYVKYGDFKLLEFLDLSFNSLTVEAICDLGILPHLRVLLLTGNGLTSLPPNLAVAEQEASVTSLTSKRYILRFPALETLMLDDNRLSNPSCFASLAGLRRLKKLSLDENRIIRIPYLQQVQLYDESVDWNGGRGSPHKEPQFMLQSKPRMLEDSDEQLDYTVLPMKKDVDRTGVPPLLKSFLQERLGIHLIRRKIVKPKHHVLMSRKESWKVKSEIPKVPKQPLVLHHPRMRTTKSPSKDMLEPEAELAEDLPTTKSTSVESEMPTENLEGHSPSCRTFVPLPPICSNSTVHSEETLSHLSDTTVRLSPERPSDEDSKSTESIFLTQVSELPSSVIHKDDLELKEKDQKKPPTAPREVKGTRRKLPTAFLPSKYHGYEELLTAKPDPAFIEPKGIQKNAQALQQMLKHPLLCHSSKPKLDTLQKPYVHKEKRVLSCTSGQNGGW”: the “soluble on expression in E. coli” value is “not soluble”.
